Experimental data from the supplement of paper PMC9112550, “Optimization of the antimicrobial peptide Bac7 by deep mutational scanning” (BMC Biology, 2022).

Tested on: Escherichia coli TOP10
Assay: shrunken log2 fold change of peptide-encoding DNA abundance (4.5 h post-induction vs induction); higher = less antimicrobial activity (less host growth inhibition)
Details: time post-induction: 4.5 h; library: site-saturation at positions 5, 18, 19, 20
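Also: peptides expressed intracellularly from a pBAD plasmid library in pooled LB shake-flask culture, induced with 0.3% L-arabinose, DNA abundance read by NGS, three biological replicates, DESeq2 with apeglm shrinkage.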

In order of falling “shrunken log2 fold change” value:
1. RRIRARPPRLPRPRPRPEVHPRP  3.57
2. RRIRMRPPRLPRPRPRPEIMPRP  2.57
3. RRIRSRPPRLPRPRPRPLGKPRP  2.2
4. RRIRWRPPRLPRPRPRPEDDPRP  1.19
5. RRIRMRPPRLPRPRPRPHPRPRP  1.04
6. RRIRHRPPRLPRPRPRPLRTPRP  1.02
7. RRIRSRPPRLPRPRPRPTGWPRP  1.01
8. RRIRHRPPRLPRPRPRPSLIPRP  0.954
9. RRIRMRPPRLPRPRPRPRPMPRP  0.935
10. RRIRMRPPRLPRPRPRPKYAPRP  0.928
11. RRIRKRPPRLPRPRPRPTSAPRP  0.797
12. RRIRGRPPRLPRPRPRPGMTPRP  0.792
13. RRIRCRPPRLPRPRPRPPAGPRP  0.79
14. RRIRNRPPRLPRPRPRPGRWPRP  0.762
15. RRIRGRPPRLPRPRPRPNSAPRP  0.749
16. RRIRPRPPRLPRPRPRPPFAPRP  0.647
17. RRIRGRPPRLPRPRPRPSLDPRP  0.607
18. RRIRFRPPRLPRPRPRPVLWPRP  0.577
19. RRIRARPPRLPRPRPRPGSGPRP  0.576
20. RRIRGRPPRLPRPRPRPTDEPRP  0.573
21. RRIRMRPPRLPRPRPRPQESPRP  0.55
22. RRIRARPPRLPRPRPRPLQWPRP  0.539
23. RRIRCRPPRLPRPRPRPGADPRP  0.484
24. RRIRRRPPRLPRPRPRPLPQPRP  0.436
25. RRIRPRPPRLPRPRPRPLGAPRP  0.426
26. RRIRCRPPRLPRPRPRPRHCPRP  0.423
27. RRIRPRPPRLPRPRPRPEDDPRP  0.413
28. RRIRWRPPRLPRPRPRPRVLPRP  0.381
29. RRIRWRPPRLPRPRPRPEFTPRP  0.362
30. RRIRERPPRLPRPRPRPPATPRP  0.35
31. RRIRMRPPRLPRPRPRPMQLPRP  0.33
32. RRIRWRPPRLPRPRPRPAVWPRP  0.32
33. RRIRCRPPRLPRPRPRPMMFPRP  0.312
34. RRIRNRPPRLPRPRPRPHPPPRP  0.304
35. RRIRKRPPRLPRPRPRPQTTPRP  0.289
36. RRIRLRPPRLPRPRPRPPLKPRP  0.253
37. RRIRVRPPRLPRPRPRPLPQPRP  0.216
38. RRIRCRPPRLPRPRPRPPSDPRP  0.213
39. RRIRCRPPRLPRPRPRPHATPRP  0.204
40. RRIRGRPPRLPRPRPRPIVEPRP  0.194
41. RRIRWRPPRLPRPRPRPETAPRP  0.177
42. RRIRARPPRLPRPRPRPWDIPRP  0.173
43. RRIRARPPRLPRPRPRPHFRPRP  0.166
44. RRIRHRPPRLPRPRPRPTETPRP  0.146
45. RRIRTRPPRLPRPRPRPAFKPRP  0.143
46. RRIRVRPPRLPRPRPRPEHFPRP  0.131
47. RRIRDRPPRLPRPRPRPEKEPRP  0.127
48. RRIRCRPPRLPRPRPRPKLDPRP  0.125
49. RRIRGRPPRLPRPRPRPCRCPRP  0.107
50. RRIRPRPPRLPRPRPRPLSRPRP  0.0978
51. RRIRQRPPRLPRPRPRPSTMPRP  0.0933
52. RRIRGRPPRLPRPRPRPRFSPRP  0.0932
53. RRIRKRPPRLPRPRPRPEMDPRP  0.0842
54. RRIRWRPPRLPRPRPRPNMTPRP  0.0683
55. RRIRDRPPRLPRPRPRPKDKPRP  0.0636
56. RRIRPRPPRLPRPRPRPCQYPRP  0.0594
57. RRIRQRPPRLPRPRPRPCRTPRP  0.0557
58. RRIRIRPPRLPRPRPRPFVIPRP  0.0556
59. RRIRTRPPRLPRPRPRPQDYPRP  0.0537
60. RRIRARPPRLPRPRPRPVMSPRP  0.0513
61. RRIRYRPPRLPRPRPRPWREPRP  0.0494
62. RRIRARPPRLPRPRPRPVKVPRP  0.0388
63. RRIRHRPPRLPRPRPRPGQPPRP  0.0384
64. RRIRMRPPRLPRPRPRPISLPRP  0.0356
65. RRIRGRPPRLPRPRPRPCTVPRP  0.032
66. RRIRRRPPRLPRPRPRPFHKPRP  0.0306
67. RRIRPRPPRLPRPRPRPDEEPRP  0.0245
68. RRIRKRPPRLPRPRPRPIVVPRP  0.0157
69. RRIRDRPPRLPRPRPRPYSIPRP  0.0125
70. RRIRCRPPRLPRPRPRPMACPRP  0.00876
71. RRIRLRPPRLPRPRPRPAKNPRP  0.00752
72. RRIRERPPRLPRPRPRPTKSPRP  -0.00427
73. RRIRDRPPRLPRPRPRPILRPRP  -0.0119
74. RRIRKRPPRLPRPRPRPHEFPRP  -0.0156
75. RRIRSRPPRLPRPRPRPHGLPRP  -0.0195
76. RRIRNRPPRLPRPRPRPKETPRP  -0.0238
77. RRIRYRPPRLPRPRPRPDLHPRP  -0.0267
78. RRIRHRPPRLPRPRPRPSDDPRP  -0.0349
79. RRIRFRPPRLPRPRPRPWESPRP  -0.037
80. RRIRYRPPRLPRPRPRPKVLPRP  -0.04
81. RRIRHRPPRLPRPRPRPSACPRP  -0.0435
82. RRIRPRPPRLPRPRPRPQWPPRP  -0.0484
83. RRIRDRPPRLPRPRPRPCDLPRP  -0.0487
84. RRIRCRPPRLPRPRPRPEHLPRP  -0.0545
85. RRIRHRPPRLPRPRPRPMRHPRP  -0.0546
86. RRIRYRPPRLPRPRPRPSGMPRP  -0.0611
87. RRIRPRPPRLPRPRPRPVYEPRP  -0.0626
88. RRIRARPPRLPRPRPRPCCMPRP  -0.0671
89. RRIRIRPPRLPRPRPRPKSCPRP  -0.0687
90. RRIRLRPPRLPRPRPRPDWPPRP  -0.0804
91. RRIRMRPPRLPRPRPRPVWNPRP  -0.0831
92. RRIRNRPPRLPRPRPRPTFGPRP  -0.084
93. RRIRMRPPRLPRPRPRPFFGPRP  -0.0869
94. RRIRQRPPRLPRPRPRPEDSPRP  -0.0908
95. RRIRNRPPRLPRPRPRPCQTPRP  -0.0964
96. RRIRWRPPRLPRPRPRPDQDPRP  -0.0971
97. RRIRQRPPRLPRPRPRPFSIPRP  -0.104
98. RRIRNRPPRLPRPRPRPAHQPRP  -0.108
99. RRIRKRPPRLPRPRPRPNDYPRP  -0.115
100. RRIRSRPPRLPRPRPRPPNMPRP  -0.118
101. RRIRFRPPRLPRPRPRPFVDPRP  -0.121
102. RRIRSRPPRLPRPRPRPFQPPRP  -0.133
103. RRIRIRPPRLPRPRPRPPAFPRP  -0.155
104. RRIRWRPPRLPRPRPRPWQNPRP  -0.159
105. RRIRVRPPRLPRPRPRPNQEPRP  -0.176
106. RRIRSRPPRLPRPRPRPYWAPRP  -0.177
107. RRIRMRPPRLPRPRPRPCEVPRP  -0.181
108. RRIRSRPPRLPRPRPRPYKGPRP  -0.186
109. RRIRYRPPRLPRPRPRPVHPPRP  -0.186
110. RRIRDRPPRLPRPRPRPYLMPRP  -0.187
111. RRIRFRPPRLPRPRPRPYVYPRP  -0.196
112. RRIRIRPPRLPRPRPRPCYGPRP  -0.202
113. RRIRYRPPRLPRPRPRPRAWPRP  -0.214
114. RRIRVRPPRLPRPRPRPQITPRP  -0.229
115. RRIRGRPPRLPRPRPRPCQDPRP  -0.233
116. RRIRVRPPRLPRPRPRPHNRPRP  -0.241
117. RRIRFRPPRLPRPRPRPQATPRP  -0.248
118. RRIRWRPPRLPRPRPRPNSPPRP  -0.255
119. RRIRCRPPRLPRPRPRPGYIPRP  -0.258
120. RRIRPRPPRLPRPRPRPLNSPRP  -0.262
121. RRIRYRPPRLPRPRPRPKWEPRP  -0.263
122. RRIRVRPPRLPRPRPRPTHFPRP  -0.266
123. RRIRRRPPRLPRPRPRPCTYPRP  -0.27
124. RRIRVRPPRLPRPRPRPHQYPRP  -0.278
125. RRIRQRPPRLPRPRPRPRYKPRP  -0.278
126. RRIRYRPPRLPRPRPRPALYPRP  -0.284
127. RRIRERPPRLPRPRPRPDDHPRP  -0.284
128. RRIRTRPPRLPRPRPRPDDKPRP  -0.294
129. RRIRPRPPRLPRPRPRPDHDPRP  -0.306
130. RRIRRRPPRLPRPRPRPNHTPRP  -0.306
131. RRIRLRPPRLPRPRPRPVNMPRP  -0.306
132. RRIRSRPPRLPRPRPRPSGMPRP  -0.311
133. RRIRYRPPRLPRPRPRPDTAPRP  -0.343
134. RRIRERPPRLPRPRPRPQCRPRP  -0.401
135. RRIRSRPPRLPRPRPRPNKGPRP  -0.413
136. RRIRHRPPRLPRPRPRPLTQPRP  -0.417
137. RRIRPRPPRLPRPRPRPPMIPRP  -0.425
138. RRIRERPPRLPRPRPRPFDEPRP  -0.433
139. RRIRARPPRLPRPRPRPFIGPRP  -0.457
140. RRIRCRPPRLPRPRPRPFDKPRP  -0.493
141. RRIRMRPPRLPRPRPRPHYHPRP  -0.493
142. RRIRFRPPRLPRPRPRPITMPRP  -0.503
143. RRIRTRPPRLPRPRPRPYRGPRP  -0.519
144. RRIRHRPPRLPRPRPRPCYKPRP  -0.522
145. RRIRERPPRLPRPRPRPMDNPRP  -0.626
146. RRIRNRPPRLPRPRPRPHKIPRP  -0.657
147. RRIRPRPPRLPRPRPRPYHNPRP  -0.785
148. RRIRPRPPRLPRPRPRPIHYPRP  -0.967
149. RRIRFRPPRLPRPRPRPLLYPRP  -1.01
150. RRIRIRPPRLPRPRPRPIPFPRP  -1.35
